# Entries after “also recorded” stand apart in the source; their conditions may differ.
# B1: StBEL-05: BEL transcription factor from Solanum tuberosum, SEQ ID NO:2, 688 aa (protein, listed as Solanum tuberosum)
# chain: MYYQGTSDNTNIQADHQQRHNHGNSNNNNIQTLYLMNPNNYMQGYTTSDTQQQQQLLFLNSSPAASNALCHANIQHAPLQQQHFVGVPLPAVSLHDQINHHGLLQRMWNNQDQSQQVIVPSSTGVSATSCGGITTDLASQLAFQRPIPTPQHRQQQQQQGGLSLSLSPQLQQQISFNNNISSSSPRTNNVTIRGTLDGSSSNMVLGSKYLKAAQELLDEVVNIVGKSIKGDDQKKDNSMNKESMPLASDVNTNSSGGGESSSRQKNEVAVELTTAQRQELQMKKAKLLAMLEEVEQRYRQYHHQMQIIVLSFEQVAGIGSAKSYTQLALHAISKQFRCLKDAIAEQVKATSKSLGEEEGLGGKIEGSRLKFVDHHLRQQRALQQIGMMQPNAWRPQRGLPERAVSVLRAWLFEHFLHPYPKDSDKIMLAKQTGLTRSQVSNWFINARVRLWKPMVEEMYLEEVKNQEQNSTNTSGDNKNKETNISAPNEEKHPIITSSLLQDGITTTQAEISTSTISTSPTAGASLHHAHNFSFLGSFNMDNTTTTVDHIENNAKKQRNDMHKFSPSSILSSVDMEAKARESSNKGFTNPLMAAYAMGDFGRFDPHDQQMTANFHGNNGVSLTLGLPPSENLAMPVSQQNYLSNDLGSRSEMGSHYNRMGYENIDFQSGNKRFPTQLLPDFVTGNLGT
# B2: POTH1: KNOX transcription factor of potato, SEQ ID NO:17, 345 aa (protein, listed as Solanum tuberosum)
# chain: MDDEMYGFHSTRDDYADKALMSPENLMMQTEYNNFHNYTNSSILTSNPMMFGSDDIQLSSEQTNSFSTMTLQNNDNIYQIRSGNCGGGSGSGGSSKDHNDNNNNNEDYDEDGSNVIKAKIVSHPYYPKLLNAYIDCQKVGAPAGIVNLLEEIRQQTDFRKPNATSICIGADPELDEFMETYCDILLKYKSDLSRPFDEATTFLNKIEMQLGNLCKDDGGVSSDEELSCGEADASMRSEDNELKDRLLRKFGSHLSSLKLEFSKKKKKGKLPKEARQMLLAWWDDHFRWPYPTEADKNSLAESTGLDPKQINNWFINQRKRHWKPSENMQLAVMDNLSSQFFSSDD
# Columns and labels:
# [1] = system: POTH1 overexpression lines; assay: Exogenous GA3 application to POTH1 overexpression lines; format: in vivo, Solanum tuberosum; conditions: shoot apex sprayed with 10 μM GA3 in 0.002% (v/v) ethanol
# From the text: Many of the traits of the phenotypes observed in POTH1 overexpression lines were similar to GA-deficient mutants. These similarities included decreased plant height, decreased internode length, and darker green coloration of the leaves (van den Berg et al., “Morphology and [^14C]Gibberellin A12 Metabolism in Wild-Type and Dwarf Solanum Tuberosum ssp. Andigena Grown Under Long and Short Photoperiods,” J. Plant Physiol. 146:467-473 (1995), which is hereby incorporated by reference in its entirety). Because of this, exogenous GA3 was applied to determine whether the overexpression lines were responsive to GA treatment. The shoot apex of overexpression lines was sprayed to runoff with 10 μM GA3 in 0.002% (v/v) ethanol or with 0.002% (v/v) ethanol alone. […] Palisade and spongy parenchyma organization is partially rescued in leaves from line 15 treated with GA3 (FIG. 5G). The GA3-treated leaf (FIG. 5J) of the severe mutant, line 15, is more similar in morphology to the wild-type leaf (FIG. 5K). Leaflets are more ovate in form rather than the typical mouse-ear shape. Wild-type leaves have a prominent mid-vein (FIG. 5L), whereas the mid-vein (FIG. 5M, arrow) is more prominent in the mutant GA3-treated leaf than in the mutant untreated leaf (FIG. 5N). […]
# [2] = biological target: POTH1 (full-length) in pBridge, fused to the GAL4 DNA-binding domain (Solanum tuberosum); assay: yeast two-hybrid, quantitative beta-galactosidase assay; reference: full-length construct StBEL-05 (pAD-05)
# [3] = system: ga20ox1 promoter regions P1, P2, P3 and first intron; assay: Gel retardation (gel mobility shift) assay; format: binding, potato; conditions: recombinant protein from E. coli
# From the text: The first intron with partial flanking exon sequence (450 bp) of potato ga20ox1 and its promoter (981 bp, provided by Dr. Salomé Prat, CSIC Cantoblanco Campus, Univ. of Madrid, Spain) were used for gel mobility shift assays. Polymerase chain reaction (PCR) was used to amplify three regions of the promoter: −981 to 636 (P1), −660 to 307 (P2), and −331 to 0 (P3). About a 25-bp overlap was maintained between P1 and P2 or P2 and P3 in the chance that the protein-binding site would span the overlapped region. The first intron of this gene was amplified from potato genomic DNA by using PCR and the oligos 5′-[…]-3′ (SEQ ID NO:21) and 5′-[…]-3′ (SEQ ID NO:22) as primers. These primers were designed based on the site of the first intron of the tobacco GA20 oxidase gene Ntc12. The four fragments were purified on a 1.4% agarose gel and labeled with α^32P-dATP using Klenow fragment. […]
# In the competition assays, unlabeled double-stranded DNA fragments (10×, 25×, 50×, 100×) were incubated with the recombinant protein before the addition of the radioactive probe. The dissociation rates were determined by adding 500-fold more cold DNA fragments to the DNA-binding reactions that were being incubated on ice, and loaded onto the running gel every 10 minutes. […]
# POTH1 = assay: Yeast two-hybrid interaction with POTH1 (nutritional selection, beta-galactosidase); format: cell-based, potato; conditions: yeast strain AH109, nutritional markers and lacZ
# From the text: The Matchmaker two-hybrid system (Clontech, CA) was used for the yeast two-hybrid screen. Yeast transformation and plasmid rescue into DH5-a E. coli cells were according to the manufacturer's instructions. Full-length POTH1 was cloned into the pBridge (Clontech, CA) vector and used as bait to screen the potato (S. tuberosum ‘Desireé’) stolon cDNA library in pAD-GAL4-2.1 (Stratagene, Calif.). Positive interactions were confirmed by cotransforming yeast strain AH109 with each purified pAD plasmid and pBridge: POTH1 and plating on -leucine/-tryptophan (transformation control) and -leucine/-tryptophan/-histidine/-adenine (selection) nutrient medium. Induction of the AH109 reporter gene, lacZ, was measured with a yeast β-galactosidase assay kit (Pierce Chemicals). β-galactosidase activity (FIG. 9B) was determined from a known density of yeast cells and calculated as 1000×OD420/time of color reaction (minutes)×volume of yeast culture (ml)×OD600.
# The StBEL-05 deletion constructs were amplified by PCR, then cloned into the vector, pGAD, in-frame with the GAL4 activation domain. POTH1 deletion constructs were amplified by PCR, and cloned into pBridge (Clontech) in-frame with the GAL4 binding domain. Sequencing of selected cDNAs and constructs was performed at the Iowa State University DNA Facility. For deletion analysis, modified constructs of POTH1 were cloned into the pBridge vector for fusion with the DNA-binding domain of GAL4 (FIG. 10A). For StBEL-05, constructs were cloned into the pGAD vector for fusion with the activating domain of GAL4 (FIG. 10B). Deletion constructs were made from both the amino and carboxy termini. These mutants were then tested for interaction in the yeast two-hybrid system by cotransforming into yeast strain AH109 with the corresponding full-length partner (StBEL-05 in pGAL4 or POTH1 in pBridge). All constructs were sequenced to verify that they were in-frame. Positive interactions were verified for lacZ induction by using a β-galactosidase assay (Pierce Chemical Company). For POTH1, seven deletion constructs were tested (FIG. 10A). For the BEL TFs, a fusion construct of StBEL-05 (653 aa of StBEL-05 sequence) and nine deletion constructs were tested (FIG. 10B).
# CaMV 35S promoter = assay: Transcription (transfection) assay, 35S GUS construct in tobacco protoplasts; format: cell-based, cauliflower mosaic virus
# ga20ox1 promoter = assay: Transcription (transfection) assay, pGAOP::GUS reporter in tobacco protoplasts; format: cell-based, potato; conditions: for decrease of relative GUS-LUC activity of the pGAOP::GUS reporter: co-transfected effector, tobacco protoplasts; for repression of ga20ox1 promoter with point mutation in the binding site: mutated reporter construct
# From the text: The cauliflowermosaic virus (CaMV) 35S promoter in pBI221 (Clontech, Palo Alto, Calif.) was replaced by an enhancer fragment (−832 to −50) of the 35S promoter plus 980 bp of the ga20ox1 promoter to generate the pGAOP::β-glucuronidase (GUS) reporter construct. With this construct, the reporter GUS transcription level is augmented but its transcription may still be affected by the ga20ox1 promoter. A CaMV 35S promoter-driven luciferase (LUC) construct 35S-LUC (obtained from Dr. Takahashi, Dept. of Biological Sciences, Graduate School of Science, Univ. of Tokyo, Japan) was used as an internal control. Effector constructs were also generated by using pBI221 vector as a backbone, with the GUS gene replaced by the full-length cDNAs of either StBEL-05 or POTH1, downstream of the CaMV 35S promoter. Truncated cDNAs that encode the N-terminal protein-binding domains of StBEL-05 or POTH1 were used to generate the dominant negative constructs, StBEL5ΔC295 and POTH1ΔC122, respectively. The reporter construct with the mutated promoter was generated by site-directed PCR mutagenesis with oligos 5′-CTATTTGACTTC*ACACGGTTATTT-3′ (SEQ ID NO:23) and 5′-AAATAACCGTGTG*AAGTCAAATAG-3′ (SEQ ID NO:24).
# Fully expanded leaves from three- to four-week-old tobacco plants were excised and placed in K3 basal media (Kao et al., “Nutritional Requirements for Growth of Vicia hajastana Cells and Protoplasts at a Very Low Density in Liquid Media,” Planta 126:105-110 (1975), which is hereby incorporated by reference in its entirety) supplemented with 0.4 M sucrose, 0.25% (w-v) cellulases (Karlan Research Products, Santa Rosa, CA), and 0.05% (w-v) macerases (Calbiochem, La Jolla, Calif.) and incubated for overnight at 28° C. After incubation, the liberated protoplasts were filtered through sterile cheesecloth into a Babcock bottle, and centrifuged for 10 minutes at 1000 rpm. Protoplasts were collected from the bottleneck area and washed once in K3 media with 0.4 M sucrose and resuspended in K3 media containing 0.4 M glucose to a final concentration of 4×10^6 protoplasts per milliliter. […]
# Luciferase assays were performed by injecting 100-μL luciferase substrate (Promega, Madison, Wis.) into 20 μL of extract and measuring the emitted photons for 15 seconds in a TD-20 luminometer (Turner Designs, Sunnyvale, Calif.). […] A fluorescence multiwell plate reader, Fluoroskan II (MTX labs, Vienna, Va.), was used to measure GUS activity at 365 nm (excitation) and 455 nm (emission). Each sample was measured three times for both LUC and GUS activity. Relative GUS-LUC activity was calculated by dividing the ratio of GUS activity to LUC activity from different effectors with the ratio from reporter plasmid alone. Relative activities calculated from three transfection replications were presented as a mean±SE.
Molecule,effect on leaf morphology of POTH1 overexpression lines [1],effect on plant height / dwarf phenotype of POTH1 overexpression lines [1],"decrease in the induction of the lacZ marker (beta-galactosidase activity) relative to the full-length construct, StBEL-05 [2] [%]",binding to ga20ox1 regulatory regions [3],interaction with POTH1 (POTH1),effect on activity of the CaMV 35S promoter (CaMV 35S promoter),decrease of relative GUS-LUC activity of the pGAOP::GUS reporter (ga20ox1 promoter),repression of ga20ox1 promoter with point mutation in the binding site (ga20ox1 promoter)
C=C1C[C@]23C[C@@]1(O)CC[C@H]2[C@@]12C=C[C@H](O)[C@@](C)(C(=O)O1)[C@H]2[C@@H]3C(=O)O [GA3],partially rescued the leaf morphology of both severe and intermediate phenotypes; also recorded: partial reversal of the leaf phenotype,caused plants with a severe phenotype to increase in height; also recorded: completely rescued the dwarf phenotype,,,,,,
"pAD5-1, StBEL-05 deletion construct in pGAD (GAL4 activation domain fusion)",,,55,,,,,
B1,,,,retarded the mobility of all three promoter sequences and the first intron,showed selective interaction,Neither StBEL-05 nor POTH1 showed any effect,more than half,no detectable repression of promoter activity
B2,,,,only formed a complex with P1,,Neither StBEL-05 nor POTH1 showed any effect,more than half,no detectable repression of promoter activity
